From patent US12497461B2, “Human NTCP-binding antibody capable of inhibiting infection of hepatitis B virus (HBV) to human hepatocytes” (priority 2019, dated 2025)

How the values were obtained:
pseudo-HBV (HBV/NL) = test: Infection inhibitory activity test using pseudo-HBV with integrated NanoLuc gene (Example 1); assay type: cell-based, hepatitis B virus (HBV); settings: pseudo-virus, FIG. 1A
Procedure: The culture supernatant of 61,500 hybridomas was allowed to react with B lymphoma cell line forcibly expressing hNTCP and a parent cell line, washed and stained with a fluorescence-labeled anti-mouse IgG antibody. Screening was carried out by FACS to obtain 700 hybridoma cell lines producing an antibody that binds to an NTCP. The positive-hybridoma culture supernatant was screened by an HBV inhibitory activity test using a pseudo-virus. […] Using the culture supernatant of each clone, the test was repeated. As is apparent from FIG. 1A, hybridoma clones producing an antibody, which lowers an HBV infection rate but not viability of cells, were obtained.
The clone-derived antibodies established were purified and the activities of them were checked again by a test for infection inhibitory activity using pseudo-HBV obtained by integrating a NanoLuc gene into the genome.

[1] = assay type: in vivo, human hepatocyte chimeric mouse (uPA/SCID); settings: administration group; highest at HBV inoculation, decreased on and after the first week
Procedure: Preparation of uPA/SCID mice and transplantation of human hepatocytes were carried out in accordance with the report (Tateno C. et al., Am. J. Pathol., 165: 901-912, 2004). To all mice, human hepatocytes taken from the same donor were transplanted. Twenty-three mice, which are obtained by replacing 90% or more of the liver tissue with human hepatocytes by transplantation, were used in the experiment. To these mice, human serum containing 10^3 copies of HBV was administered (inoculated) through the tail vein. One day before and two days after HBV inoculation, 2.0 mg of purified N6HB426-20 antibody was intravenously injected. On Day 7, 14, and 21 after the HBV inoculation, 1.0 mg of the same antibody was intraperitoneally injected. As a control experiment, the same dose of normal mouse IgG antibody (Normal Mouse IgG, Whole Molecule, Purified, FUJIFILM Wako Pure Chemical Corporation) was injected in the same manner. A single mouse died on Day 0 after administration was excluded from the experiment. […]
For quantification of HBV-DNA, 10 μL of mouse serum was used. […] The serum HBV-DNA level was measured by a real-time PCR method using cobas 6800 System (Roche Diagnostics KK, Tokyo, Japan). In this measurement method, the lower limit of quantification was 3.61 log copies/mL. Mouse serum (10 μL) was diluted 30 folds with PBS and bile acid was measured.

[2] = test system: HBV / NTCP double mutant (PE276, 277AA); test: HBV infection of cells expressing NTCP double mutant in the presence of antibody; assay type: cell-based, hepatitis B virus (HBV); settings: FIG. 7
From the text: (§1) To establish NTCP expression cells, HepG2 cells or Huh7 cells were infected with a lentiviral vector having a nucleic acid encoding a wild-type NTCP or each of NTCP mutants. Forty-eight hours after infection, the cells were subjected to an immunofluorescence assay or a viral infection assay.

human NTCP Y146A mutant = target: T1, human NTCP Y146A mutant (Homo sapiens, UniProt Q14973, Y146A); test: Antibody binding to NTCP mutant (epitope mapping); settings: FIG. 5A, left
T1 construct: expressed in transfected cells; host or cells: HepG2 or Huh7 cells, lentiviral transduction
T1 sequence (Q14973 1-349 Y146A): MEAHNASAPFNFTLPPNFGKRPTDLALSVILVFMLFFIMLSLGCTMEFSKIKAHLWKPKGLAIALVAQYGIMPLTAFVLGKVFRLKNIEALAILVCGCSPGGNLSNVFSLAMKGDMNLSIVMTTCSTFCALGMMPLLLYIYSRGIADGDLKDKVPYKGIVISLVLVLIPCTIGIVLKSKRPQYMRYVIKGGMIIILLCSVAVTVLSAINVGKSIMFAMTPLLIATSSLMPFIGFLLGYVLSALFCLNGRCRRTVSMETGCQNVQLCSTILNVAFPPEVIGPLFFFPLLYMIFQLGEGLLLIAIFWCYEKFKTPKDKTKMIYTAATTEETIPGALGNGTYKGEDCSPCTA
Procedure: as §1
(§2) Huh7 cells expressing a wild-type NTCP or each of the NTCP mutants were fixed with 4% paraformaldehyde, and then, a permeation treatment with 0.3% Triton X-100 was performed. Each of the NTCPs was detected by using N6HB426-20 antibody or HE1-9-10 antibody (dilution ratio: 1:200) and an Alexa Fluor488-conjugate goat anti-mouse IgG antibody (secondary antibody) (Thermo Fisher Scientific) (dilution ratio: 1:1000). Imaging of the cells was carried out by use of a laser scanning confocal microscope using FLUOVIEW fv1000 and IX73 (OLYMPAS).
(§3) In this manner, the relationship with a region important for HBV infection was clarified. Sensitivity to HBV infection, a change in inhibitory activity of the antibody and contribution of a predetermined amino acid residue to FACS analysis were evaluated by alanine scanning method and use of an NTCP mutant transfectant. […] However, both ends of the amino acid residues at positions 276-277 (i.e., amino acid residues at positions 274-275 and 278-279) serve as an epitope involved in HBV infection. […] The phenomenon was further precisely analyzed. […]

[3] = target: T2, human NTCP triple mutant (YDD146, 149, and 152AAA) (Homo sapiens, UniProt Q14973, D149A/D152A/Y146A); test: Antibody binding to NTCP mutant (epitope mapping); settings: FIG. 5B
T2 construct: expressed in transfected cells; host or cells: HepG2 or Huh7 cells, lentiviral transduction
T2 sequence (Q14973 1-349 Y146A/D149A/D152A): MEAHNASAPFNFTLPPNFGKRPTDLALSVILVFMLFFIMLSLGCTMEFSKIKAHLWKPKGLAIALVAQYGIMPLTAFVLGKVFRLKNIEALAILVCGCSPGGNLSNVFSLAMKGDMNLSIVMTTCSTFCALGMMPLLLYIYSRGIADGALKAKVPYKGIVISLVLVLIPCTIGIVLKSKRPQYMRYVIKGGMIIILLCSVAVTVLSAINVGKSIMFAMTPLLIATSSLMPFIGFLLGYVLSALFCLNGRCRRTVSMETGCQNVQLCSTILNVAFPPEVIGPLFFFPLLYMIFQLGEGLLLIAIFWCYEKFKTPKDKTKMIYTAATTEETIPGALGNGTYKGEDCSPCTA
Procedure: as §1, §2, §3

[4] = test system: HBV (Genotype C or Genotype D)

B1: N6HB426-20 antibody: anti-human NTCP monoclonal antibody from a sub-clone of N6HB426 hybridoma; VH SEQ ID NO: 3, VL SEQ ID NO: 4 (antibody, V domains shown)
VH: QVQLQQSGAELVKPGASVKLSCKASDFTFTEYTIHWIKQMSGQGLEWIGWFYPGSGDIKYSEKFKDKATLTADKSSSTVYMELNRLTSEDSAVYFCARHMRDFRGFYYGRFYFDYWGQGTTLTVSS
VL: EIVLTQSPAIMSASPGEKVTITCRASSSVSSSYLHWYQQKSGVSPKLWIYSTSNLASGVPARFSGSGSGTSYSLTINSVEAEDAATYYCQQYSGYRWTFGGGTTLEIKRA
modifications: N6HB426 antibody heavy chain variable region; N6HB426 antiibody light chain variable region
With B1 as the molecule, how does the “HBV inhibitory activity of hybridoma culture supernatant” value (pseudo-HBV (HBV/NL)) read?
The value was “comparable to preS1 peptide”.

And the “bile acid level in the sera” value [1]?
Its value is “transient increase”.

What about the “inhibition of HBV infection of cells expressing double mutant (PE276, 277AA)” value [2] of the same molecule?
The value was “failed to be inhibited”.

What about the “binding to single mutant Y146A” value (human NTCP Y146A mutant) of the same molecule?
Its value is “significantly low binding”.

And the “binding to triple mutant (YDD146, 149, and 152AAA)” value [3]?
The value was “weak binding”.

What about the “inhibitory activity on infection of normal human hepatocytes with HBV” value [4] of the same molecule?
Its value is “comparable to preS1”.
